# Experimental data: the RNAGym collection of RNA variant scans (doi:10.1093/molbev/msab373)
# B1: Azoarcus group I ribozyme (parent)
# chain: GUGCCUUGCGCCGGGAAACCACGCAAGGGAUGGUGUCAAAUUCGGCGAAACCUAAGCGCCCGCCCGGGCGUAUGGCAACGCCGAGCCAAGCUUCGGCGCCUGCGCCGAUGAAGGUGUAGAGACUAGACGGCACCCACCUAAGGCAAACGCUAUGGUGAAGGCAUAGUCCAGGGAGUGGCGAAAGUCACACAAACCGG
# Variants of: B1
# Experiment: reverse-splicing fitness (ratio to wild type); higher = more active; in vitro selection; Mg2+ level not given
# Outline: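 An in vitro group I ribozyme library with randomized positions was T7-transcribed and gel-purified. In triplicate, 10 pmol RNA in EPPS pH 7.5 was reacted with 50 pmoles of a 30-nt RNA substrate for 1 h at 37 °C across several added MgCl2 levels (1–48 mM), then stopped with EDTA. Products were reverse transcribed from a substrate-complementary primer, PCR-amplified and sequenced (HiSeq 4000). Fitness is a variant's read proportion after selection over that before, normalised to wild type.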
row,Variant,reverse-splicing fitness
1,GUGCCUUGCGCCGGGAAACCACGCAAGGGAUGGUGUCAAAUUCGGCGAAACCUAAGCGCCCGCCCGGGCGUAUGGCAACGCUGAGCCAAGCUUCGGCGCCUGCGCCGAUGGAGGUGUAGCGACUAGACGGCACCCACCUAAGGCAAACGGUAUGGUGAAGGCAUAGUCAAGGGAGUGGCGAAAGUCACACAAACCGG [C82U A111G A120C C150G C169A],0.0083
2,GUGCCUUGCGCCGGGAAACCACGCAAGGGAUGGUGUCAAAUUCGGCGAAACCUAAGCGCCCGCCCGGGCGUAUGGCAACGCUGAGCCAAGCUUCGGCGCCUGCGCCGAUGGAGGUGUAGCGACUAGACGGCACCCACCUAAGGCAAACGAUAUGGUGAAGGCAUAGUCAAGGGAGGGGCGAAAGUCACACAAACCGG [C82U A111G A120C C150A C169A U176G],0.0042
3,GUGCCUUGCGCCGGGAAACCACGCAAGGGAUGGUGUCAAAUUCGGCGAAACCUAAGCGCCCGCCCGGGCGUAUGGCAACGCUGAGCCAAGCUUCGGCGCCUGCGCCGAUGGAGGUGUAGCGACUAGACGGCACCCACCUAAGGCAAACGAUAUGGUGAAGGCAUAGUCAAGGGAGCGGCGAAAGUCACACAAACCGG [C82U A111G A120C C150A C169A U176C],0.0156
4,GUGCCUUGCGCCGGGAAACCACGCAAGGGAUGGUGUCAAAUUCGGCGAAACCUAAGCGCCCGCCCGGGCGUAUGGCAACGCUGAGCCAAGCUUCGGCGCCUGCGCCGAUGGAGGUGUAGCGACUAGACGGCACCCACCUAAGGCAAACGAUAUGGUGAAGGCAUAGUCAAGGGAGAGGCGAAAGUCACACAAACCGG [C82U A111G A120C C150A C169A U176A],0.0215
5,GUGCCUUGCGCCGGGAAACCACGCAAGGGAUGGUGUCAAAUUCGGCGAAACCUAAGCGCCCGCCCGGGCGUAUGGCAACGCUGAGCCAAGCUUCGGCGCCUGCGCCGAUGGAGGUGUAGCGACUAGACGGCACCCACCUAAGGCUAACGCUAUGGUGAAGGCAUAGUCUAGGGAGCGGCGAAAGUCACACAAACCGG [C82U A111G A120C A145U C169U U176C],0.0132
6,GUGCCUUGCGCCGGGAAACCACGCAAGGGAUGGUGUCAAAUUCGGCGAAACCUAAGCGCCCGCCCGGGCGUAUGGCAACGCUGAGCCAAGCUUCGGCGCCUGCGCCGAUGGAGGUGUAGCGACUAGACGGCACCCACCUAAGGCUAACGCUAUGGUGAAGGCAUAGUCUAGGGAGAGGCGAAAGUCACACAAACCGG [C82U A111G A120C A145U C169U U176A],0.0139
7,GUGCCUUGCGCCGGGAAACCACGCAAGGGAUGGUGUCAAAUUCGGCGAAACCUAAGCGCCCGCCCGGGCGUAUGGCAACGCUGAGCCAAGCUUCGGCGCCUGCGCCGAUGGAGGUGUAGCGACUAGACGGCACCCACCUAAGGCUAACGCUAUGGUGAAGGCAUAGUCUAGGGAGGGGCGAAAGUCACACAAACCGG [C82U A111G A120C A145U C169U U176G],0.00307
8,GUGCCUUGCGCCGGGAAACCACGCAAGGGAUGGUGUCAAAUUCGGCGAAACCUAAGCGCCCGCCCGGGCGUAUGGCAACGCUGAGCCAAGCUUCGGCGCCUGCGCCGAUGGAGGUGUAGCGACUAGACGGCACCCACCUAAGGCAAACGAUAUGGUGAAGGCAUAGUCUAGGGAGAGGCGAAAGUCACACAAACCGG [C82U A111G A120C C150A C169U U176A],0.017
9,GUGCCUUGCGCCGGGAAACCACGCAAGGGAUGGUGUCAAAUUCGGCGAAACCUAAGCGCCCGCCCGGGCGUAUGGCAACGCUGAGCCAAGCUUCGGCGCCUGCGCCGAUGGAGGUGUAGCGACUAGACGGCACCCACCUAAGGCAAACGAUAUGGUGAAGGCAUAGUCUAGGGAGCGGCGAAAGUCACACAAACCGG [C82U A111G A120C C150A C169U U176C],0.0177
10,GUGCCUUGCGCCGGGAAACCACGCAAGGGAUGGUGUCAAAUUCGGCGAAACCUAAGCGCCCGCCCGGGCGUAUGGCAACGCUGAGCCAAGCUUCGGCGCCUGCGCCGAUGGAGGUGUAGCGACUAGACGGCACCCACCUAAGGCAAACGAUAUGGUGAAGGCAUAGUCUAGGGAGGGGCGAAAGUCACACAAACCGG [C82U A111G A120C C150A C169U U176G],0.00561
11,GUGCCUUGCGCCGGGAAACCACGCAAGGGAUGGUGUCAAAUUCGGCGAAACCUAAGCGCCCGCCCGGGCGUAUGGCAACGCUGAGCCAAGCUUCGGCGCCUGCGCCGAUGGAGGUGUAGCGACUAGACGGCACCCACCUAAGGCUAACGCUAUGGUGAAGGCAUAGUCCAGGGAGAGGCGAAAGUCACACAAACCGG [C82U A111G A120C A145U U176A],0.017
12,GUGCCUUGCGCCGGGAAACCACGCAAGGGAUGGUGUCAAAUUCGGCGAAACCUAAGCGCCCGCCCGGGCGUAUGGCAACGCUGAGCCAAGCUUCGGCGCCUGCGCCGAUGGAGGUGUAGCGACUAGACGGCACCCACCUAAGGCUAACGCUAUGGUGAAGGCAUAGUCCAGGGAGCGGCGAAAGUCACACAAACCGG [C82U A111G A120C A145U U176C],0.0251
13,GUGCCUUGCGCCGGGAAACCACGCAAGGGAUGGUGUCAAAUUCGGCGAAACCUAAGCGCCCGCCCGGGCGUAUGGCAACGCUGAGCCAAGCUUCGGCGCCUGCGCCGAUGGAGGUGUAGCGACUAGACGGCACCCACCUAAGGCUAACGCUAUGGUGAAGGCAUAGUCCAGGGAGGGGCGAAAGUCACACAAACCGG [C82U A111G A120C A145U U176G],0.00658
14,GUGCCUUGCGCCGGGAAACCACGCAAGGGAUGGUGUCAAAUUCGGCGAAACCUAAGCGCCCGCCCGGGCGUAUGGCAACGCUGAGCCAAGCUUCGGCGCCUGCGCCGAUGGAGGUGUAGCGACUAGACGGCACCCACCUAAGGCAAACGGUAUGGUGAAGGCAUAGUCAAGGGAGGGGCGAAAGUCACACAAACCGG [C82U A111G A120C C150G C169A U176G],0.00578
15,GUGCCUUGCGCCGGGAAACCACGCAAGGGAUGGUGUCAAAUUCGGCGAAACCUAAGCGCCCGCCCGGGCGUAUGGCAACGCUGAGCCAAGCUUCGGCGCCUGCGCCGAUGGAGGUGUAGCGACUAGACGGCACCCACCUAAGGCAAACGGUAUGGUGAAGGCAUAGUCAAGGGAGAGGCGAAAGUCACACAAACCGG [C82U A111G A120C C150G C169A U176A],0.00865
